Assay results reported in doi:10.1101/2022.06.10.495428.

Tests used:
[1] = target: Influenza A/Zhejiang/DTID-ZJU01/2013 (H7N9) polymerase heterotrimer (influenza A/Zhejiang/DTID-ZJU01/2013 (H7N9)) (UniProt M9TI86); test: SEC-MALS
[2] = target: Influenza A/Zhejiang/DTID-ZJU01/2013 (H7N9) polymerase heterotrimer (influenza A/Zhejiang/DTID-ZJU01/2013 (H7N9)) (UniProt M9TI86); test: cryo-EM structure

**Q.** “Influenza A/Zhejiang/DTID-ZJU01/2013 (H7N9) polymerase heterotrimer (from UniProt M9TI86;M9TLW3;X5F427) (complex)” was tested. Which stoichiometry N [1] did it give?
**A.** 2

**Q.** What about the stoichiometry N [2] of the same substance?
**A.** 2
